For series [1], the target named is T1, nCRP (native pentameric C-reactive protein) (UniProt P02741 19-224).
T1 sequence: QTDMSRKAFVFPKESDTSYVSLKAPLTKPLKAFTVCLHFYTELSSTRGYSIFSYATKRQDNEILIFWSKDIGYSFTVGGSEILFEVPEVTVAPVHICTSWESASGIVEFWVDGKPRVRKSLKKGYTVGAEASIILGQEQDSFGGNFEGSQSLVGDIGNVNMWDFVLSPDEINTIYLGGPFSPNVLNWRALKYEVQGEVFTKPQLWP
The series can be described thus: bead pull-down, Qubit ssDNA quantification.

Series [2] deals with T2, mCRP (monomeric C-reactive protein) (UniProt P02741 19-224).
T2 sequence: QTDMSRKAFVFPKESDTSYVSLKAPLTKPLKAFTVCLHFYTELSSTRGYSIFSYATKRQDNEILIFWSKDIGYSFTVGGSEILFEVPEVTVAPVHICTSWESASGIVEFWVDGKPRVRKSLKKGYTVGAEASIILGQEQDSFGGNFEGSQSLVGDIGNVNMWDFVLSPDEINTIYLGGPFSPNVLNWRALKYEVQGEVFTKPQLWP
The series can be described thus: SPR. In general terms: In SPR one partner is held on a chip, and binding of the other changes the refractive index at the surface.

As usually defined, the Kd is the free concentration of one partner at which half of the binding sites on the other are occupied at equilibrium, for simple one-to-one binding.

B1: ApmCRP4 (ssDNA)
DNA: TTGACCCTTTAAGGTCGTCCGGAAACGGGC
Regarding B1, the binding result in series [1] was “no binding”.

B2: ApmCRP3 (ssDNA)
DNA: CCAATGGCCCTAGGGCTGCAAATCGCTGCC
As to B2, binding in series [2] was put at a Kd of 400 nM.

The values are drawn from article PMC12478261.
